In patent US7851436 (WASHINGTON UNIVERSITY IN ST LOUIS, dated 2010):

What was measured:
α5 integrin = target: T1, α5 integrin (human, UniProt P08648 42-1049); experiment: GST pull-down from surface-biotinylated Ch-1 lysate, Western blot (data not shown)
T1 construct: whole, on cells

α4 integrin = target: T2, α4 integrin (human, UniProt P13612 34-1032); experiment: as above
T2 construct: whole, on cells; The antibody lists in the methods name α2, α3 and α5 but not α4
T2 sequence (looked up): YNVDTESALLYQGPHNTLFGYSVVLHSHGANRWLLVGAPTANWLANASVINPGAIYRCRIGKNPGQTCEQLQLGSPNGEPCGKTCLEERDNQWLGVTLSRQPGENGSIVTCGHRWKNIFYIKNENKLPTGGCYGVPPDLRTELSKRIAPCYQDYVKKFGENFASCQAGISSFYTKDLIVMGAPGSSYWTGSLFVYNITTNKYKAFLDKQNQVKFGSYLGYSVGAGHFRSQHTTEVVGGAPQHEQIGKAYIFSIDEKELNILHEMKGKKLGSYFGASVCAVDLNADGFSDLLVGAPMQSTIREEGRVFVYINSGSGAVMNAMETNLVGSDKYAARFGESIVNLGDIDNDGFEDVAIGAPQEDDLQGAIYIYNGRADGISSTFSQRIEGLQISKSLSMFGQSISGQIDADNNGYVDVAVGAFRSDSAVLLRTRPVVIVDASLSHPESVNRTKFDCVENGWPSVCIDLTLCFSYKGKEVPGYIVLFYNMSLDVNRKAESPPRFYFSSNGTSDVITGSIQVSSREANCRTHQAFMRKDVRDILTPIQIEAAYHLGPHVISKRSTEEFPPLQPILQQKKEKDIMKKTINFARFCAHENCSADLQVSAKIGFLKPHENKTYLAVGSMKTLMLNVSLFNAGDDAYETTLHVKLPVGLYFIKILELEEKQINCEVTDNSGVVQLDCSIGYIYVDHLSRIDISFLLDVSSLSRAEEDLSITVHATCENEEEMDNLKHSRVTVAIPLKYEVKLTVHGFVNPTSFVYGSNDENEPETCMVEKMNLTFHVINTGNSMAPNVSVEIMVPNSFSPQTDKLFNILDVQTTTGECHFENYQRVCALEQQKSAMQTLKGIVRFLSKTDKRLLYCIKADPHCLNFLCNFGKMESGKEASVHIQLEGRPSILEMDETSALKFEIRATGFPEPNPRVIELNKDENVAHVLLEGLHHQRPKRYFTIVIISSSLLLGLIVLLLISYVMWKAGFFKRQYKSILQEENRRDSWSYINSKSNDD
Description: (§1) Cell Surface labeling and GST Pull-down Assay. Ch-1 cells were incubated with EZ-link Sulfo-NHS-Biotin reagent for 30 mins. according to the product instruction (Sigma). After 3 washes with 0.1 M glycine in PBS, the cells were lysed with a lysis buffer described above. […] The membrane was washed and incubated with antibodies and then incubated with a secondary antibody coupled to horseradish peroxidase. The antibody complex was visualized by enhanced chemiluminescence.

β1 integrin = target: T3, β1 integrin (human, UniProt P05556 21-798); experiment: GST pull-down from surface-biotinylated Ch-1 lysate, Western blot (FIG. 3K)
T3 construct: whole, on cells; Probed by Western blot in the material pulled out by PIIBNP
T3 sequence (P05556 21-798): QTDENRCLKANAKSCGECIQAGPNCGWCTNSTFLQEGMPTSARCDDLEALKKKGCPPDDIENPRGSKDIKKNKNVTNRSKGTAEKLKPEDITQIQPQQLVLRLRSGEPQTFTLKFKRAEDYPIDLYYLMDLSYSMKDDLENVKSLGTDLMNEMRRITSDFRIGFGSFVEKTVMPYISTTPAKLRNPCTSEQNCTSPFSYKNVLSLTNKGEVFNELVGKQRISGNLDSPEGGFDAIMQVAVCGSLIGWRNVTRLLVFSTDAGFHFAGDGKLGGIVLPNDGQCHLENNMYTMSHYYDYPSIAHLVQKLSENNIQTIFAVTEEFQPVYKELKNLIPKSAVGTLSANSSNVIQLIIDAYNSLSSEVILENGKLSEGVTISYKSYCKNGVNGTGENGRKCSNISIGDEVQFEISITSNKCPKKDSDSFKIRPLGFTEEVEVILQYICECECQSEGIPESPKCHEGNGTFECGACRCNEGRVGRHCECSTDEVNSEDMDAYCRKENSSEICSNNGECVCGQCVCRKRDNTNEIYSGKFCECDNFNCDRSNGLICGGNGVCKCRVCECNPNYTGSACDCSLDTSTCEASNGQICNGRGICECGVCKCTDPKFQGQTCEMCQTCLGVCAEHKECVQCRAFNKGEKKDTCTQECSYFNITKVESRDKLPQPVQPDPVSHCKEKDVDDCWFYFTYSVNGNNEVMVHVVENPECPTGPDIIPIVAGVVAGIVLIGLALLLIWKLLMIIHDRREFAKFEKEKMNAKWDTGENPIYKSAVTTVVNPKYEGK
Description: as §1

Measured: binding result

T1 sequence (P08648 42-1049): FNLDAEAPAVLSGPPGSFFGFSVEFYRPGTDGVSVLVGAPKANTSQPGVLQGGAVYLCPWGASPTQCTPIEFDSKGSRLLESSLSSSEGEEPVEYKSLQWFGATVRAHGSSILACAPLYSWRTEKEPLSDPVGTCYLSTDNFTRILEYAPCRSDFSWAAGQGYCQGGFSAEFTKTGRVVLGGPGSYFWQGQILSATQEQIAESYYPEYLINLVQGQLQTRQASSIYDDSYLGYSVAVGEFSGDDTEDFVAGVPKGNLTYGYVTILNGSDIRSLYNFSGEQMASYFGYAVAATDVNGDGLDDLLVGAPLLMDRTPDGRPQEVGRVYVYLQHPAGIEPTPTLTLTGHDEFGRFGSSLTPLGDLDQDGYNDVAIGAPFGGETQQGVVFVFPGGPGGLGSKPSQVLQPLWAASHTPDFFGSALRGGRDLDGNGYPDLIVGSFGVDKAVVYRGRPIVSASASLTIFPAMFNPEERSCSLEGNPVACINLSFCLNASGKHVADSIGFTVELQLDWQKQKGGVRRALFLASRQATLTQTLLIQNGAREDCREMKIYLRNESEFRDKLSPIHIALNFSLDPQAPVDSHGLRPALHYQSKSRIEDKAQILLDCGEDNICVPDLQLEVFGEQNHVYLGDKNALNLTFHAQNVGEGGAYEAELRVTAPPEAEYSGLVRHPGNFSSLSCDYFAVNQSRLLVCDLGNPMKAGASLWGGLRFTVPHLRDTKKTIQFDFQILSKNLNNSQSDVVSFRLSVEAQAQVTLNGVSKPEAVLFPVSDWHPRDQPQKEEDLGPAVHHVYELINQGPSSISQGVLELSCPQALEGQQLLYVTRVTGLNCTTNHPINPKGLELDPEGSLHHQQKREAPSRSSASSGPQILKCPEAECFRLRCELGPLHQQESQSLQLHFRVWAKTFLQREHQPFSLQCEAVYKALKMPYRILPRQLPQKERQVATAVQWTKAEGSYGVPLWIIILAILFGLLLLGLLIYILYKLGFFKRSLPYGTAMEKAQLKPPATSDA

B1: GST-PIIBNP (GST fusion of human Type IIB collagen amino propeptide, exons 3-8) (ligand)
chain: not shown
notes: domain: PIIBNP (exons 3-8); Expressed in E. coli BL21 (DE3) as a GST fusion; also called Type IIB propeptide; PPIIBNP; not shown: glutathione S-transferase (GST) tag encoded by the pGEX-4T-2 vector, thrombin-cleavable
no binding: α5 integrin | α4 integrin | β1 integrin
